Test results: patent US20050196758

Molecular target: T1, trans-2-butenoyl-ACP (acyl carrier protein carrying the trans-2-butenoyl group), P0A6A8
T1 chain: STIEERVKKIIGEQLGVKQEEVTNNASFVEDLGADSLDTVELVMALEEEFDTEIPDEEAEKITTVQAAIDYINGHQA

B1: His-tagged FabK (enoyl-ACP reductase II) of Streptococcus pneumoniae (protein)
chain: MKTRITELLKIDYPIFQGGMAWVADGDLAGAVSKAGGLGIIGGGNAPKEVVKANIDKIKSLTDKPFGVNIMLLSPFVEDIVDLVIEEGVKVVTTGAGNPSKYMERFHEAGIIVIPVVPSVALAKRMEKIGADAVIAEGMEAGGHIGKLTTMTLVRQVATAISIPVIAAGGIADGEGAAAGFMLGAEAVQVGTRFVVAKESNAHPNYKEKILKARDIDTTISAQHFGHAVRAIKNQLTRDFELAEKDAFKQEDPDLEIFEQMGAGALAKAVVHGDVDGGSVMAGQIAGLVSKEETAEEILKDLYYGAAKKIQEEASRWTGVVRND
For B1, the “specific activity (enoyl-ACP reductase activity, coupled in vitro assay, butyryl-ACP formation by gel electrophoresis)” value was 66±4 nmole product formed/min/mg FabK.
